The text below walks through data of paper PMC12996321.

In data set [1] the target is recombinant human histone octamer assembled into mononucleosomes on 250 bp 601 Widom DNA (human) (UniProt Q71DI3). Briefly: single-molecule TIRF colocalisation.
Another data set addresses Halo-Sox2 (UniProt P48432 1-319). Briefly: single-molecule TIRF.

Sequence of Halo-Sox2 (P48432 whole entry): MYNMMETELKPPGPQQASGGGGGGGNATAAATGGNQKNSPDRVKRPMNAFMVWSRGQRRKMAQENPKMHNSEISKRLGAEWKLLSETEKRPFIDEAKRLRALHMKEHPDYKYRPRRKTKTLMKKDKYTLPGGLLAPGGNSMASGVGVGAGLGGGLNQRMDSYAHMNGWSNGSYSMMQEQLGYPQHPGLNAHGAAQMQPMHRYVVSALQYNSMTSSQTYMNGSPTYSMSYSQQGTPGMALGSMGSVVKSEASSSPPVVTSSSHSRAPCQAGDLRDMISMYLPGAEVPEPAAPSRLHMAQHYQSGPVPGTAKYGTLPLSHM

Turning to “Halo-Sox2 (recombinant, JF549-labelled) (from UniProt P48432 1-319) (natural protein)”, the residence time tau2 on MN-6 (state attributed to TF-histone interactions) in data set [1] is 3.4 s.

B1: Sdna3 DNA+ 50 bp (dsDNA)
DNA 1: AGCACCGCTTAAACGCACGTACGCTTTGTTCCCCGCGTTTTAACCGCCAA
DNA 2: TTGGCGGTTAAAACGCGGGGAACAAAGCGTACGTGCGTTTAAGCGGTGCT
Regarding B1, in the data set with Halo-Sox2, the binding result is on record as “binds”.
